Blank lines part the entries; values can stand above or below the substance they belong to.
How the values were obtained:
[1] = biological target: OVA peptide on H-2Kb (mouse); assay: value cited from Alam et al. for the monovalent OT1 TCRα/β heterodimer on immobilised OVA peptide/H-2Kb; not measured in this filing; soluble, other
[2] = biological target: OVA peptide on H-2Kb (mouse); assay: SPR, BIAcore 2000; biotinylated peptide/H2-Kb/birA on a streptavidin chip; apparent affinity of the bivalent dimer; single-chain; fusion: hIL-15 with hIL-15RαSu/birA (OT1scTCR dimer)
[3] = biological target: OVA peptide on H-2Kb (mouse); assay: SPR; the murine single-chain CD8α/β domain of the complex binds the same peptide-MHC, so the value is not that of the TCR alone; single-chain; fusion: hIL-15, in complex with scCD8/hIL-15RαSu/birA (OT1scTCR/scCD8 heterodimer)
[4] = biological target: OVA (aa257-264) peptide/H-2Kb complex (mouse) (UniProt P01901); assay: SPR (BIAcore 2000), biotinylated pMHCI on streptavidin chip
OVA (aa257-264) peptide/H-2Kb complex (mouse), sequence (P01901 22-305, one chain of several): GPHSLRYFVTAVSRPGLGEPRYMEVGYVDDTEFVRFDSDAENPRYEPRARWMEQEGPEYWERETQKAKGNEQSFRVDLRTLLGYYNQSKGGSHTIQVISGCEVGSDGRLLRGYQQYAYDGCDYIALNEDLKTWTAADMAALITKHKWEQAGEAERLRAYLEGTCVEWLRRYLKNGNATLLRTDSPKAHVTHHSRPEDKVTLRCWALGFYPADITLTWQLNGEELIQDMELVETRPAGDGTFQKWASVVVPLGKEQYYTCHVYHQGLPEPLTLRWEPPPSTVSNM

[5] = biological target: IL-15 receptor (IL-15RβγC) on 32Dβ cells (human; mouse) (UniProt P14784); assay: cell-based or functional assay
IL-15 receptor (IL-15RβγC) on 32Dβ cells (human; mouse), sequence (P14784 27-551, chain 1 of 2): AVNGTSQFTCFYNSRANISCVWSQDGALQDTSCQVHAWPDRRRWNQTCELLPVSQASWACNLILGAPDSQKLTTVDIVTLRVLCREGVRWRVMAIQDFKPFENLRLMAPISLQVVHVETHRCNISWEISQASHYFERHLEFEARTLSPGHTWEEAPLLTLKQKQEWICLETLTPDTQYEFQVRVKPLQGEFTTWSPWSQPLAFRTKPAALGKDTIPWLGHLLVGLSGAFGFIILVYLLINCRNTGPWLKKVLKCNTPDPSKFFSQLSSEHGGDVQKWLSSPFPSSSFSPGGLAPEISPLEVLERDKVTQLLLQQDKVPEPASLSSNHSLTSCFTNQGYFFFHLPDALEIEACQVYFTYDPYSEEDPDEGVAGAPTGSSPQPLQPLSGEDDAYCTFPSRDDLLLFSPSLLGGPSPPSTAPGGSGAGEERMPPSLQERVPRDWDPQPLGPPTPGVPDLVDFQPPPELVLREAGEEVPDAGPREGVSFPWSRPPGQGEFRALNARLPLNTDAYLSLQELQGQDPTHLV
IL-15 receptor (IL-15RβγC) on 32Dβ cells (human; mouse), sequence (P34902 23-369, chain 2 of 2, further chain): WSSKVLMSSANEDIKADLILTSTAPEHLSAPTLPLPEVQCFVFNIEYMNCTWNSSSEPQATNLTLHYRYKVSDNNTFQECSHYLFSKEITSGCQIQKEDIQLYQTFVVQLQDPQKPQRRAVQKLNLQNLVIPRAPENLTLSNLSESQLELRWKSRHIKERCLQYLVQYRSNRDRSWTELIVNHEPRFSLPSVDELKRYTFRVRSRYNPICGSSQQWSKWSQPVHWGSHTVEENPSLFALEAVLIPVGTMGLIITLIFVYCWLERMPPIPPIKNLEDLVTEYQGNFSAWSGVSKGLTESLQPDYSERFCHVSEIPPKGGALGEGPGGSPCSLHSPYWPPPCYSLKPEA

[6] = biological target: anti-human IL-15 antibody; assay: ELISA, anti-human IL-15 antibody as capture and as detection
[7] = biological target: anti-human IL-15 antibody; assay: ELISA, anti-human IL-15 antibody as capture and as detection; reference of the table

Kd [1]: 6 µM
Kd [2]: 30 µM
Kd [3]: 2.6 µM
Substance: OT1scTCR

Kd [4]: 30 µM
Substance: OT1scTCR dimer: OT1scTCR/hIL-15:OT1scTCR/hIL-15RαSu/birA complex (from UniProt P40933 49-162; Q13261 31-95)

Substance: OT1scTCR/scCD8 heterodimer: OT1scTCR/hIL-15:scCD8/hIL-15RαSu/birA complex (from UniProt P40933 49-162; P01731 28-196; P10300 22-175; Q13261 31-95)
EC50 (read off the curve) (anti-murine CD8α mAb): 0.0005 µM
Kd [4]: 2.6 µM

32Dβ cell proliferation, half-maximal stimulation (EC50) [5]: 0.0003 µM
Substance: c264scTCR dimer: c264scTCR/hIL-15:c264scTCR/hIL-15RαSu/birA complex (from UniProt P40933 49-162; Q13261 31-95)

32Dβ cell proliferation, half-maximal stimulation (EC50) [5]: 0.0003 µM
Substance: c264scTCR/hIL-15 fusion protein (from UniProt P40933 49-162)

EC50 (read off the curve) [6]: 0.0002 µM
Relative activity (%) [7]: 100%
Substance: c264scTCR/huIL15N72D fusion protein
